Measured values as given in patent US20040103447A1, “Schizophrenia-like mental disease model animal, method of constructing the same and use thereof” (priority 2001, published 2004).

What was measured:
SD rats [1] = assay: Startle response intensity to 120 db sound after neonatal subcutaneous administration; format: in vivo, rat; details: 1.0 mg/kg s.c. 10 times from 2 days after birth, compared to cytochrome-C administration group
Description: As the animal, SD rats (Japan SLC) were used from 2 days after birth. As a reagent, human recombinant interleukin 1α and cytochrome-C (Sigma) were each dissolved in physiological saline at 40 μg/mL and used. The reagents were subcutaneously administered 10 times in total (up to 11 days after birth) into the neck at 25 μL (each 1.0 mg/kg) per 1 g of rat body weight […] from 2 days after birth. From 21 days after birth, startle response intensity and prepulse inhibition were measured with an apparatus of measuring startle response of small animal (San Diego Instruments). That is, as a sensory stimulus to induce a startle response, a sound stimulation was used, and as a prepulse stimulation, a sound pressure stimulus of 75 db was given, which was 5 db higher than the environmental noise (background noise) level. After 100 milli-seconds, a pulse stimulus of a sound pressure of 120 db was given. The ratio of decrease in the startle response when prepulse was combined to the startle response with 120 db alone was considered as the prepulse inhibition (PPI).

SD rats [2] = assay: Prepulse inhibition (PPI) in startle response after neonatal subcutaneous administration; format: in vivo, rat; details: 75 db prepulse, 120 db pulse after 100 ms, 1.0 mg/kg s.c. 10 times from 2 days after birth, compared to cytochrome-C group
Description: The prepulse inhibition in startle response is a test for perception-response ability using a startle response, which can be commonly evaluated in human and animals, as an index. This test is characterized in that abnormalities in attention and ability to process information in brain, which are considered to be the main disease state of schizophrenia, can be scientifically and objectively evaluated. The test itself is a measurement of decrease in a fright startle response to a big sound, which is attributable to the previous application of a weak sound stimulus (prepulse) of the level incapable of causing a fright startle response, 30-150 mSec before causing a fright startle response by making a noise of about 120 db. The decrease produced by the prepulse is called a prepulse inhibition, which is known to indicate abnormal decrease in schizophrenia patients and schizophrenia animal models (Braff D. L., Geyer M. A., Arch. Gen. Psychiatry, 47, 181-188, 1990).
As the animal, SD rats (Japan SLC) were used from 2 days after birth. As a reagent, human recombinant interleukin 1α and cytochrome-C (Sigma) were each dissolved in physiological saline at 40 μg/mL and used. […] From 21 days after birth, startle response intensity and prepulse inhibition were measured with an apparatus of measuring startle response of small animal (San Diego Instruments). […]

B1: IL-1α: human recombinant interleukin 1α, a cytokine, dissolved in physiological saline and administered to neonatal rats to induce the model (protein, UniProt P01583 113-271, looked up)
Interleukin-1 alpha: SAPFSFLSNVKYNFMRIIKYEFILNDALNQSIIRANDQYLTAAALHNLDEAVKFDMGAYKSSKDDAKITVILRISKTQLYVTAQDEDQPVLLKEMPEIPKTITGSETNLLFFWETHGTKNYFTSVAHPNLFIATKQDYWVCLAGGPPSITDFQILENQA
SD rats [1]; 22 days after birth, FIG. 1B
  intensity of startle response to the sound pressure of 120 db: such abnormality was not found
SD rats [1]; 60 days after birth, FIG. 1A
  intensity of startle response to the sound pressure of 120 db: significant increase
SD rats [2]; 22 days after birth, FIG. 2B
  prepulse inhibition: such abnormality was not found
SD rats [2]; 60 days after birth, p<0.05, FIG. 2A
  prepulse inhibition: significant decrease
